Measured values from paper PMC5449386.

Experiments:
Assay in all cases: controlled Fab-arm exchange read by hydrophobic interaction chromatography; equimolar parental antibodies, 1 mg/mL each, 75 mM 2-MEA, 5 h at 31 °C; 2-MEA removed, overnight at 4 °C for re-oxidation; percent bispecific product from HIC peak areas
[1] = target: IgG1-CH3(mmG2a)-T370K-K409R parental antibody (7D8-derived) (human | mouse)
[2] = target: IgG1-CH3(mmG2a)-K409R parental antibody with the R411T mutation (7D8-derived) (human | mouse)
Chain of IgG1-CH3(mmG2a)-K409R parental antibody with the R411T mutation (7D8-derived) (human | mouse) (heavy, as listed by the source, chain 1 of 2): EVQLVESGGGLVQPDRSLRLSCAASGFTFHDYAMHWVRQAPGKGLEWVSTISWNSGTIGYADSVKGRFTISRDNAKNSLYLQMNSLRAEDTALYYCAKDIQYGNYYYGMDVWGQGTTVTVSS
Chain of IgG1-CH3(mmG2a)-K409R parental antibody with the R411T mutation (7D8-derived) (human | mouse) (light, as listed by the source, chain 2 of 2): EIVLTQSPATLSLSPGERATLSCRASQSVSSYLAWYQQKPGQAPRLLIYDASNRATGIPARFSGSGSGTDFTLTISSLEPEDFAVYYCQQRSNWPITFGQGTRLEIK

[3] = target: mmIgG2b-K409R parental antibody (7D8-derived) (human | mouse)
Chain of mmIgG2b-K409R parental antibody (7D8-derived) (human | mouse) (heavy, as listed by the source, chain 1 of 2): as the sequence (heavy, as listed by the source, chain 1 of 2) above
Chain of mmIgG2b-K409R parental antibody (7D8-derived) (human | mouse) (light, as listed by the source, chain 2 of 2): as the sequence (light, as listed by the source, chain 2 of 2) above

Chain of IgG1-CH3(mmG2a)-T370K-K409R parental antibody (7D8-derived) (human | mouse) (heavy, as listed by the source, chain 1 of 2): as the sequence (heavy, as listed by the source, chain 1 of 2) above
Chain of IgG1-CH3(mmG2a)-T370K-K409R parental antibody (7D8-derived) (human | mouse) (light, as listed by the source, chain 2 of 2): as the sequence (light, as listed by the source, chain 2 of 2) above

Row | cFAE efficiency (percent bispecific product by HIC) [1] | cFAE efficiency (percent bispecific product by HIC) [2] | cFAE efficiency (percent bispecific product by HIC) [3] | Substance
1 | 76% | – | – | IgG1-CH3(mmG2a)-F405L parental antibody with the T370K mutation (2F8-derived)
2 | > 90% | 61% | – | IgG1-CH3(mmG2a)-F405L-R411T parental antibody (2F8-derived)
3 | – | – | 80% | mmIgG2b-F405L parental antibody (2F8-derived)
4 | > 90% | – | – | IgG1-CH3(mmG2a)-F405L parental antibody (2F8-derived)
